This is an account of results in the supplement of paper PMC12042874.

± gives the uncertainty stated by the source.

This series is described as follows: amyloid nucleation score (Sup35N fusion, yeast selection) (log enrichment); library NNK2; higher = more nucleation; inactive = no reads after selection. In short, it runs like this: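 Yeast lacking psi expressed peptides of 20 random codons fused to Sup35N, received 100 μM copper sulfate for 24 hours, and were then grown for 7 days at 30°C on medium lacking adenine and uracil. Illumina sequencing of input and output plasmid inserts provided the reads. Nucleation scores are DiMSum log enrichments of output over input, centred on the mode of non-aggregating sequences. Any sequence with under 100 input reads was excluded.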

Regarding PYELCDRTVRMSFWVTVWGH, the amyloid nucleation score came to 0.281 ± 0.49.

In turn, SYILGILFVFYVCETKYLYL came in with an amyloid nucleation score of 0.328 ± 0.25.

VRRMRG: the amyloid nucleation score came to 1.18 ± 0.42.

For the substance CVSEDDCLDYPKV, the amyloid nucleation score was 2.29 ± 0.13.

Turning to TWIGYHFGI, the amyloid nucleation score entry was “inactive”.

RARLKTMRPGSCSRARGWCG registered an amyloid nucleation score of 0.883 ± 0.33.

Turning to ICKRVVVLWHSKEPDALFVG, the amyloid nucleation score entry is “inactive”.

In turn, LALCREWVTAGSGSFYLDGP yielded an amyloid nucleation score of -0.06 ± 1.1.

The substance CLPNTST had an amyloid nucleation score of 0.075 ± 0.2.

SDPHMHD came in with an amyloid nucleation score of 0.521 ± 0.25.

The substance EHLWYLIREIPNHEFKNKLE registered an amyloid nucleation score of 0.073 ± 0.42.

As for GSASLCNSAERVYV, the amyloid nucleation score is 0.681 ± 0.55.

As to KGRGEMSLLFYSILLVGFCL, the amyloid nucleation score result is “inactive”.

Substance MTRVTYMYVFIYACESRYTH yielded an amyloid nucleation score of -0.116 ± 0.22.

GFGVPDWMFDSFSAAQLSQI registered an amyloid nucleation score of -0.343 ± 0.35.

In the case of QYMYLYIKRMMYSSTKKF, the amyloid nucleation score result is “inactive”.

As for DIVIYWV, the amyloid nucleation score was -0.139 ± 0.63.

Regarding CRISVIFLYFSFFY, the amyloid nucleation score entry is “inactive”.

Turning to RFSCLSELSFLYFGSH, the amyloid nucleation score amounted to 5.059 ± 0.034.

Consider FLFVNDVGRE, for which the amyloid nucleation score result was “inactive”.

As to AFWKVRLYRRPG, the amyloid nucleation score was found to be 1.76 ± 0.24.

ACSYANLLVTLLNSPEMPVE: the amyloid nucleation score amounted to 0.306 ± 0.5.

DLVHFLRNRWCGIR yielded an amyloid nucleation score of -0.73 ± 0.55.

In turn, GTSWTVTID had an amyloid nucleation score of 0.537 ± 0.18.

ILEACREAARPAITFSFFTK gave an amyloid nucleation score of -1.04 ± 1.1.

Substance LSKHPYGCVL had an amyloid nucleation score of 0.862 ± 0.66.

Consider QTSYMDYKYRMGFLS, for which the amyloid nucleation score was -0.69 ± 0.63.

Substance YTVNCCIRANANGAFFSKVQ came in with an amyloid nucleation score of 3.69 ± 0.053.

Turning to PRKPRNVDSL, the amyloid nucleation score turned out to be 0.134 ± 0.18.

As for GFLFMVMRSQLRCVYINKY, the amyloid nucleation score turned out to be 1.61 ± 0.15.

For AAVNWNRFPKTVTA, the amyloid nucleation score is -0.195 ± 0.33.

Take YDPVAVF: the amyloid nucleation score is -0.945 ± 0.43.

In turn, PIRCRMKFY had an amyloid nucleation score of -0.599 ± 0.38.

SDISNQLMFFGRWAPRVLVD: the amyloid nucleation score was -0.35 ± 1.1.

In turn, EVFACTSG returned an amyloid nucleation score of 1.56 ± 0.44.

TYAYYH came in with an amyloid nucleation score of 5.61 ± 0.061.

Turning to NAQSRVLAEETGLSNPPIML, the amyloid nucleation score is -1.45 ± 0.62.

Take YINSMLSSYFDSLWEGSKSR: the amyloid nucleation score was -0.109 ± 0.27.

Regarding NFNACIPNKDRSFSNVDVCV, the amyloid nucleation score was -1.35 ± 1.

Regarding SFLSRL, the amyloid nucleation score is -0.4 ± 0.65.

Turning to SRLGVFMYANVLWGKQSRND, the amyloid nucleation score was determined as 6.267 ± 0.058.

In turn, YRWNYWFVVMMRPSSEDYLR gave an amyloid nucleation score of 4.951 ± 0.047.

Consider TCIDEGEVVLDFFNVIKVLC, for which the amyloid nucleation score entry was “inactive”.

For the substance EWIIERRSL, the amyloid nucleation score was -0.279 ± 0.63.

Take NARVTGVF: the amyloid nucleation score entry is “inactive”.

CNFLFYPFWCWLSICYFRSM displayed an amyloid nucleation score of 4.55 ± 0.085.

HKWWSAPGSLAS returned an amyloid nucleation score of -0.038 ± 0.79.

For VDEQSLNR, the amyloid nucleation score is 0.62 ± 0.41.

In turn, RFILLFTCGKGFFMHTCSRG displayed an amyloid nucleation score of 3.86 ± 0.11.

Substance VICGLTPDRDAHMYLTIFWL registered an amyloid nucleation score of 0.578 ± 0.81.

With ECNSSALHNWKY, the amyloid nucleation score turned out to be 0.088 ± 0.54.

Substance KATWS returned an amyloid nucleation score of -1.2 ± 0.76.

The substance CDVNYL yielded an amyloid nucleation score of -0.681 ± 0.3.

For SDEVVVFRRDMSGCHEFVLV, the amyloid nucleation score was 1.12 ± 0.27.

WVAKYLFSLEDHVSVRIVDI gave an amyloid nucleation score of 0.227 ± 0.56.

On to PCNLKNNCVSEWIGLFVQPQ, for which the amyloid nucleation score was 2.23 ± 0.18.

RVQDRYILNSVRQHHGAGQR came in with an amyloid nucleation score of -0.14 ± 1.1.

Regarding CLQSPLYFDWGSGIQISNWL, the amyloid nucleation score result was “inactive”.

SRTDVPSTMLLSESRAVNYY: the amyloid nucleation score is -0.569 ± 1.1.

With VSDACRLDYLLAHILELGSM, the amyloid nucleation score was -1.08 ± 0.78.

Regarding VLKVRHVFEGGTEVILQSNR, the amyloid nucleation score amounted to 2.22 ± 0.2.

With DCLYRLSIKSSKAMVSHECR, the amyloid nucleation score was -0.142 ± 0.79.

In turn, LFAIKTGQDHCNTRLKKSQC showed an amyloid nucleation score of -0.087 ± 0.76.

The substance MTQPEGY had an amyloid nucleation score of 0.325 ± 0.56.

VSRII: the amyloid nucleation score entry was “inactive”.

Turning to FRMVSKPMLYNIMRFTSMLV, the amyloid nucleation score turned out to be 0.057 ± 1.1.

FVRSIDNSAYLLWVSLYPCM gave an amyloid nucleation score of -0.364 ± 0.79.

Consider VGIYMIWLISSS, for which the amyloid nucleation score entry is “inactive”.

Consider VYYLDSV, for which the amyloid nucleation score turned out to be 0.978 ± 0.74.

Substance FSSWAFLMSRLCYHDSESHL came in with an amyloid nucleation score of 0.417 ± 0.16.

In turn, ISYIIKILRKVVSWDNDMEV displayed an amyloid nucleation score of -1.25 ± 0.45.

As to HDGCGPCSHWTGSQFTFRSS, the amyloid nucleation score is 2.2 ± 0.11.

In turn, FCESCKWNL had an amyloid nucleation score of 1.29 ± 0.14.

DPVTMLYSF: the amyloid nucleation score came to 0.179 ± 0.32.

As for NFFRAENVYCSMLFSKGWDW, the amyloid nucleation score is 6.966 ± 0.049.

Consider YISCYCRSSFRMLSVVSDYR, for which the amyloid nucleation score was 2.54 ± 0.077.

In turn, DGRIVYEPSKSARFWKVKCL displayed an amyloid nucleation score of -0.335 ± 0.79.

Regarding WVNIYADLRLKVVAGNCCNV, the amyloid nucleation score came to 3.38 ± 0.12.

LCLDIMFVSNI showed an amyloid nucleation score of -0.696 ± 1.

Regarding KSVRIWPSVSAGTRRLKQS, the amyloid nucleation score result was “inactive”.

As for NRDVRCGVRPQHVCFQ, the amyloid nucleation score entry was “inactive”.

For the substance HCGVLVDISFEHALIFR, the amyloid nucleation score is -1.99 ± 0.78.

The substance DYVSRKCFRDKWSERSSCRG showed an amyloid nucleation score of 0.085 ± 0.37.

Substance SPTER gave an amyloid nucleation score of 0.053 ± 0.65.

With ICFTCQYFNKYPGRS, the amyloid nucleation score turned out to be 4.31 ± 0.09.

As to YSGWFFCNFISLWV, the amyloid nucleation score turned out to be 6.529 ± 0.057.

On to CVLYCVGFN, for which the amyloid nucleation score came out at 6.483 ± 0.042.

The substance LLRAT came in with an amyloid nucleation score of 0.598 ± 0.23.

Substance FTYRPISRNM gave an amyloid nucleation score of 4.99 ± 0.076.

In the case of MIVNYFWIRCAPLFWQAIPS, the amyloid nucleation score is 3.63 ± 0.15.

ANKKIDSGNGLLDFQQNSQK displayed an amyloid nucleation score of -0.249 ± 1.

Substance DSVIWVCIVWRRSSSTMCVM had an amyloid nucleation score of 1.01 ± 0.38.

For AVIMRFVYYDAYWGLWMVKE, the amyloid nucleation score came to 0.228 ± 1.

In the case of DSRIGYTSYQRFTMKSNVLC, the amyloid nucleation score came to 0.024 ± 0.44.

SKGYCWNVICSRVSFTTYAL showed an amyloid nucleation score of 6.77 ± 0.061.

MLMRNFSNSNLLAENFMQMR displayed an amyloid nucleation score of 0.138 ± 1.1.

Substance WDYVQVCPNLLVRTLLFMFA gave an amyloid nucleation score of -0.81 ± 0.32.

As for STRDQQWMMRNRG, the amyloid nucleation score is -0.381 ± 0.79.

As for ALYRSGHLMLTVNGGCWWDF, the amyloid nucleation score is 0.45 ± 0.8.

YKHFSGFLDFQVPAFSGYVS: the amyloid nucleation score entry was “inactive”.

As to YGPICEYFQGCEALSWWSTC, the amyloid nucleation score was found to be 0.39 ± 0.2.

In turn, GMLEGCRHHGIGWKGYACGQ came in with an amyloid nucleation score of 2.94 ± 0.087.

As to NLSYDHPACCKWNRCYVKHR, the amyloid nucleation score was found to be 1.81 ± 0.14.

Turning to RIEDFF, the amyloid nucleation score turned out to be 1.19 ± 0.68.

For FVRSWSTCCDA, the amyloid nucleation score is -0.176 ± 0.31.

As to YGPSCSICPVVVIPSF, the amyloid nucleation score result is “inactive”.

In turn, LAVIGVSRGMGL registered an amyloid nucleation score of 0.716 ± 0.25.

For the substance GHIMKCGATRQYHCEDP, the amyloid nucleation score was -0.614 ± 0.79.

Consider YWSYSLGGSQEYSGHTMA, for which the amyloid nucleation score is -0.135 ± 0.35.

GFDSDMVPHRSSRAVLC yielded an amyloid nucleation score of 1.33 ± 0.46.

In turn, LEAFWKVKSCSVRTGVYGID gave an amyloid nucleation score of -0.555 ± 0.79.

With LTATFTNMGCTTGSKCLM, the amyloid nucleation score result is “inactive”.

For the substance QMYATSFNIDCVLFLSLFEM, the amyloid nucleation score is 6.27 ± 0.07.

FRYRKSLDCNAMVPERQTGT yielded an amyloid nucleation score of 1.11 ± 0.53.

As to FMSIFDWSCVWFYLCKGTWD, the amyloid nucleation score is -1.75 ± 0.54.

For MPYTCMGVFVAHMEATE, the amyloid nucleation score was 0.316 ± 0.4.

For GNLVC, the amyloid nucleation score worked out at 0.821 ± 0.19.

SYDLELAT showed an amyloid nucleation score of 0.667 ± 0.18.

The substance NLYMPDS came in with an amyloid nucleation score of 0.395 ± 0.8.

DKIRTSKAISQIWLLPIYFE gave an amyloid nucleation score of 0.491 ± 0.57.

In turn, PISFVCYMEKVLDYANWPCR displayed an amyloid nucleation score of 8.458 ± 0.066.

Consider SSSWSNTHRFCLRTL, for which the amyloid nucleation score entry was “inactive”.

Take QSIRFVFLPYELGTYHGDEG: the amyloid nucleation score was -0.241 ± 0.24.

Turning to RTLFSRFYRRSMFNLSVKKK, the amyloid nucleation score result is “inactive”.

With GGDDVEDMYALGPNFFEGG, the amyloid nucleation score came out at 0.627 ± 0.66.

The substance ARIAETSRYKRSENSLSLV displayed an amyloid nucleation score of -0.88 ± 0.76.

On to LKGQYWVLRKGGCEGGLSAG, for which the amyloid nucleation score turned out to be 1.81 ± 0.45.

In the case of SAHLYALGNSRHFIYVPVEL, the amyloid nucleation score result was “inactive”.

With LTAGVYSSSWSDVS, the amyloid nucleation score was 1.4 ± 0.14.

For the substance NACYIDFGRTAVSTVLAILY, the amyloid nucleation score was determined as 3.41 ± 0.09.

As to GEGHWNYLLASFCNHGMCYF, the amyloid nucleation score was found to be 7.471 ± 0.029.

On to HSSGCYF, for which the amyloid nucleation score is 0.081 ± 1.1.

In the case of CRCLPKKGFHVLTVSRFRAS, the amyloid nucleation score entry was “inactive”.

KNNTADWWIRSNSERYRN returned an amyloid nucleation score of -0.039 ± 0.46.

As for NMLYHYIDRSCRGAMDHHGR, the amyloid nucleation score result was “inactive”.

For the substance MYRRSSWHLWWSKELFDAIY, the amyloid nucleation score was -0.723 ± 0.79.

Consider GIQVNYRWLGFGVGKRKARL, for which the amyloid nucleation score stood at 5.547 ± 0.043.

Regarding FHQIKFRVSFMHCRTSSANI, the amyloid nucleation score was 2.25 ± 0.089.

For the substance NCFRVFNSFSIFGAFRTMDR, the amyloid nucleation score stood at 5.22 ± 0.064.

The substance LLFQNLIRRLCSMCQFGGCV yielded an amyloid nucleation score of -0.531 ± 0.46.

For HVEHGNCFQ, the amyloid nucleation score entry is “inactive”.
